Columns and labels:
Conditions in all cases: protein: recombinant; tags: GST (N-term, pGEX-4T-1); strand 1 has 5' overhang AATT (4 nt) and 3' overhang AGCT (4 nt); strand 2 fully paired
GmPHD4 NV = molecular target: T1, GmPHD4 NV (Glycine max, UniProt I1M961 1-199); assay: EMSA; Binding buffer not given (EMSA as in ref. 59); probe annealed in 50 mM NaCl; competitor in ten-fold excess
T1 sequence: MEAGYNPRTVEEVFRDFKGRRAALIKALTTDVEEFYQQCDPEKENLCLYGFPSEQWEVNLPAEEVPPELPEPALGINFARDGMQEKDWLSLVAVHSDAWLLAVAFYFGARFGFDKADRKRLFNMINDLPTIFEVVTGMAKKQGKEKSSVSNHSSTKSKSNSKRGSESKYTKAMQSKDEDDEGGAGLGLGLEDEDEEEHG

GmPHD4 N domain = molecular target: T2, GmPHD4 N domain (Glycine max, UniProt I1M961 1-114); assay: EMSA; strong; Binding buffer not given (EMSA as in ref. 59); probe annealed in 50 mM NaCl; competitor in ten-fold excess
T2 sequence: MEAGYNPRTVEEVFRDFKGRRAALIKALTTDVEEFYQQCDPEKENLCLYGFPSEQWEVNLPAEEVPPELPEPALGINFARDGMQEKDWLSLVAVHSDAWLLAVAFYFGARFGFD

GST-GmPHD6 = molecular target: T3, GST-GmPHD6 (Glycine max, UniProt I1L1N8 1-248); assay: EMSA; reduced by 10x unlabeled probe; Binding buffer not given (EMSA as in ref. 59); probe annealed in 50 mM NaCl; competitor in ten-fold excess
T3 sequence: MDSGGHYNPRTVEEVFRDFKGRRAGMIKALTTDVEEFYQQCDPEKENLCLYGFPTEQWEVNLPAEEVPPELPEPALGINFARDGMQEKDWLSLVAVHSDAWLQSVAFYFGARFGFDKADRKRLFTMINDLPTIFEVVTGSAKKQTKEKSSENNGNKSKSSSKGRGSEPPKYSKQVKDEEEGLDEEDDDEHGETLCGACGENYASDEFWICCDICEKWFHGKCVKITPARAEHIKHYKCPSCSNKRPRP

GST-GmPHD5 = molecular target: T4, GST-GmPHD5 (Glycine max, UniProt Q06A75 1-252); assay: as above
T4 sequence: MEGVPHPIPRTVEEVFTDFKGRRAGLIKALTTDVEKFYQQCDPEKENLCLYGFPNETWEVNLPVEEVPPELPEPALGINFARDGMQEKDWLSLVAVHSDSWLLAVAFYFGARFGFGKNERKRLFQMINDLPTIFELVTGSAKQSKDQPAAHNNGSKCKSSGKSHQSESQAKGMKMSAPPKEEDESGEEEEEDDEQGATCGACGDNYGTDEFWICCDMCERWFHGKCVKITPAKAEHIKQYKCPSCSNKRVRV

B1: 5x GTGGAG probe (dsDNA)
DNA 1: AATTCGGATCCGTGGAGGTGGAGGTGGAGGTGGAGGTGGAGGGTACCGAGCT
DNA 2: CGGTACCCTCCACCTCCACCTCCACCTCCACCTCCACGGATCCG
binding result (GmPHD4 NV): no binding | binding result (GmPHD4 N domain): binds | binding result (GST-GmPHD6): binds | binding result (GST-GmPHD5): binds

— paper PMC2747011, “Soybean GmPHD-Type Transcription Regulators Improve Stress Tolerance in Transgenic Arabidopsis Plants”
